Measured values reported in patent publication CN115703837A (DONGGUAN PENGZHI BIOTECHNOLOGY CO LTD, dated 2023).

Tests used:
[1] = molecular target: T1, 生长刺激表达基因2蛋白(ST2)抗原 (UniProt Q01638-2 19-328, limits assumed); assay: BLI, AMC sensor, antibody immobilised at 10 ug/ml, ST2 antigen in serial dilution
T1 construct: also called sST2; IL1RL1
T1 sequence (looked up): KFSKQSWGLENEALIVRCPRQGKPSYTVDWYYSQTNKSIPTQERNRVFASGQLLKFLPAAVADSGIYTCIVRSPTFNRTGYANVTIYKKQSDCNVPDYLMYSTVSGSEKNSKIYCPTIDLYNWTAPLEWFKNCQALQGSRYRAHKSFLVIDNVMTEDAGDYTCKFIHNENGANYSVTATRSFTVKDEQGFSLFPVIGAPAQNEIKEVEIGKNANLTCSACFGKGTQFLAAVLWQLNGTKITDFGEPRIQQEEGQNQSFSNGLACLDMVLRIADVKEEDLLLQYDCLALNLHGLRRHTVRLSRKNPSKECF

[2] = molecular target: T1, 生长刺激表达基因2蛋白(ST2)抗原; assay: sandwich ELISA, antibody at 0.000 ng/ml (blank, no antibody), ST2 antigen, HRP anti-ST2 mAb detection
[3] = molecular target: T1, 生长刺激表达基因2蛋白(ST2)抗原; assay: sandwich ELISA, antibody at 1.953 ng/ml captured on goat anti-mouse IgG, ST2 antigen, HRP anti-ST2 mAb detection
[4] = molecular target: T1, 生长刺激表达基因2蛋白(ST2)抗原; assay: sandwich ELISA, antibody at 3.906 ng/ml captured on goat anti-mouse IgG, ST2 antigen, HRP anti-ST2 mAb detection
[5] = molecular target: T1, 生长刺激表达基因2蛋白(ST2)抗原; assay: sandwich ELISA, antibody at 7.813 ng/ml captured on goat anti-mouse IgG, ST2 antigen, HRP anti-ST2 mAb detection
[6] = molecular target: T1, 生长刺激表达基因2蛋白(ST2)抗原; assay: sandwich ELISA, antibody at 15.625 ng/ml captured on goat anti-mouse IgG, ST2 antigen, HRP anti-ST2 mAb detection
[7] = molecular target: T1, 生长刺激表达基因2蛋白(ST2)抗原; assay: sandwich ELISA, antibody at 31.250 ng/ml captured on goat anti-mouse IgG, ST2 antigen, HRP anti-ST2 mAb detection

Molecule: 对照 (antibody)
- Kd [1]: 7.3 nM
- koff [1]: 0.00723 s⁻¹
- kon [1]: 990000 M⁻¹ s⁻¹
- OD450 (ref 630) [2]: 0.046 OD
- OD450 (ref 630) [3]: 0.163 OD
- OD450 (ref 630) [4]: 0.26 OD
- OD450 (ref 630) [5]: 0.37 OD
- OD450 (ref 630) [6]: 0.665 OD
- OD450 (ref 630) [7]: 1.51 OD

B1: Anti-ST2 11F9 (antibody, V domains shown)
VH: QIQLVQSGPELKKPGETVKLSCKASGYTFTDYSIHWVKQAPGKGLKWMGWIHTETGEPTYADDFKGRFAFSLETSASTAYFQINNLRNEDTATYFCARDDGLDYWGQGTSVTVSS
VL: DVQMIQSPSSLSASLGDIVTMTCQASQDTNINLNWFQQKPGKAPELLIYDTNNLEDGVPSRFSGSRYGTDFTLTISSLEDEDMATYFCLQHSYLPLTFGAGTKLELK
- Kd [1]: 0.761 nM
- koff [1]: 0.000745 s⁻¹
- kon [1]: 979000 M⁻¹ s⁻¹
